In CN106928350A (TIANJIN INST IND BIOTECHNOLOGY CAS; SUZHOU GENEWIZ …, dated 2017):

Columns and labels:
[1] = biological target: T1, HA of A/PuertoRico/8/1934 H1N1 (Influenza A virus A/PuertoRico/8/1934 …, UniProt P03452 18-565); assay: immunofluorescence on virus-infected MDCK cells
T1 construct: whole, on cells; also called PR8

[2] = biological target: T2, HA of H4 (A/duck/Czech/1956)/PR8 H4N1 (PR8-RS) (Influenza A virus A/duck/Czech/1956 (H4), UniProt P19696 17-564); assay: immunofluorescence on virus-infected MDCK cells, antibody 40μg/mL
T2 construct: whole, on cells

B1: AF4H1K1 (antibody, V domains shown)
VH: QVQLVESGGGVVQPGTSLRLSCEASGFTSSAYAMHWVRQAPGKGLEWVAVITFDGGYQYYADSVKGRFTISRDISRNTLHLHMNSLRAEDTAVYYCARDPLTKLLPFDWVSGGYFDYWGQGTLVTVSS
VL: not shown
notes: also called AF4H1K1 IgG; AF4H1K1IgG
binding result [1]: no binding (tested: 40μg/mL)
binding result [2]: binds
